# Results: article PMC13168245 (Nature Communications, 2026)
# Experiments:
# AMC008-VRC01 complex = target: T1, AMC008-VRC01 complex (HIV-1 clade B, isolate AMC008 …, stabilised); test: mass photometry; AMC008 with two excess Fabs (b12 and 3BC315, or VRC01 and 3BC315), 1:9 molar ratio in PBS, on ice 30 minutes, diluted in PBS; mass increase divided by 55 kDa per Fab; conditions: both partners purified
# T1 construct: source: formed from purified AMC008 Env (Expi293F) and excess VRC01 Fab (1:9 molar ratio in PBS, on ice 30 minutes); copies: 3 + 3 + 3 + 3
# AMC008-b12 complex = target: T2, AMC008-b12 complex (HIV-1 clade B, isolate AMC008 …, stabilised); test: as above; conditions: both partners purified
# T2 construct: source: formed from purified AMC008 Env (Expi293F) and excess b12 Fab (1:9 molar ratio in PBS, on ice 30 minutes); copies: 3 + 3 + 3 + 3
binder,measurement,setting,value
"antibody 3BC315 Fab (Fab, V domains shown, source: Expi293F, heavy and light chain co-expressed; IgG purified on Protein A, digested with papain, Fab in the Protein A flow-through) VH: QVQLVQSGAEMKDPGASVKVSCRASGYKFTDYYMHWVRQAPGQGLEWVGWVNTNGGFTKYGAKFQGRVTVTRDTSTNTVFLELSRLTFGDTAMYFCARPMRPVSHGIDYSGLFVFQFWGRGTMVTVSS VL: QSALTQPASVSASPGQSITISCSGTRSDVGGYDFVSWYQQHPGKVPKLIIYEVTKRPSGIPQRFSGSKSGNTASLTISGLQADDEADYYCCSYANYDKLILGGGTKLTVL",stoichiometry N,AMC008-VRC01 complex,~1 Fab
same,stoichiometry N,AMC008-b12 complex,~3 Fabs
